Publication PMC10000386

B1: Bak [human] / Bak [human] (parent)
chain 1: MASGQGPGPPRQECGEPALPSASEEQVAQDTEEVFRSYVFYRHQQEQEAEGVAAPADPEMVTLPLQPSSTMGQVGRQLAIIGDDINRRYDSEFQTMLQHLQPTAENAYEYFTKIATSLFESGINWGRVVALLGFGYRLALHVYQHGLTGFLGQVTRFVVDFMLHHCIARWIAQRGGWVAALNLGNGPILNVLVVLGVVLLGQFVVRRFFKS
chain 2: B1 chain 1

Variants of: B1
Assay: BiFC (flow cytometry)
Conditions: with Bak [human]; 6 independent experiments (H164A), 8 (WT); read off a plot

Question: chain 1 H164A was tested. Which response (Mean Venus/Mean mRFP) did it give?
Answer: The response (Mean Venus/Mean mRFP) was 1.8.

Same assay, conditions: with Bak [human]; 6 independent experiments; read off a plot

Question: Which response (Mean Venus/Mean mRFP) does the source give for chain 1 H164A here?
Answer: Its response (Mean Venus/Mean mRFP) is 1.8.
